Results from patent US10208288B2, “Differentiation of human embryonic stem cells into pancreatic endocrine cells” (Janssen Biotech, Inc., priority 2012, dated 2019).

Tested on: cells of the human embryonic stem cell line H1 differentiated to stage 5
Assay: Real-time PCR of pancreatic endoderm/endocrine genes after factors spiked into stage 5 media
Format: cell-based
Conditions: for expression of somatostatin / expression of ghrelin / expression of glucagon: 20 ng/ml at S5, mRNA at day 3 of S5, vs control; for expression of somatostatin: FIG. 1B; for expression of ghrelin: FIG. 1C; for expression of glucagon: FIG. 1D; for mRNA expression of insulin / mRNA expression of NKX6.1: factor spiked at day 1 of stage 5, mRNA at day 3 of S5, vs control cultures, Table I: Ephrin-A4 100 ng/ml; for mRNA expression of insulin: Activin A and Activin C 20 ng/ml, FIG. 1A; for expression of hormones / mRNA expression of NKX6.1: Semaphorin 3a 50 ng/ml; for expression of hormones: Epigen 20 ng/ml at S5, compared to untreated cultures; for mRNA expression of NKX6.1: Epigen 20 ng/ml, FIG. 1F
Protocol: Cells of the human embryonic stem cell line H1 (hESC H1, passage 40) were seeded as single cells at 1×10^5 cells/cm^2 on MATRIGEL™ (1:30 dilution; BD Biosciences, NJ)-coated dishes in mTeSR®1 media (StemCell Technologies, Vancouver, Canada) supplemented with 10 μM of Y27632 (Rock inhibitor, Catalog No. Y0503, SigmaAldrich, St. Louis, Mo.). Forty-eight hours post seeding, cultures were washed in incomplete PBS (phosphate buffered saline without Mg or Ca). Cultures were differentiated into pancreatic endoderm/endocrine lineages as follows: • a) Stage 1 (Definitive Endoderm (DE)—3 days): Cells were cultured for one day in stage 1 media: MCDB-131 medium (Catalog No. 10372-019, Invitrogen, Carlsbad, Calif.) supplemented with 0.1% fatty acid-free BSA (Catalog No. 68700, Proliant, Ankeny, Iowa), 0.0012 g/ml sodium bicarbonate (Catalog No. S3187, SigmaAldrich, St. Louis, Mo.), 1× GlutaMax™ (Invitrogen Catalog No. 35050-079), 4.5 mM D-Glucose (SigmaAldrich Catalog No. G8769), 100 ng/ml GDF8 (R&D Systems, Minneapolis, Minn.) and 1 μM MCX compound (a GSK3B inhibitor, 14-Prop-2-en-1-yl-3,5,7,14,17,23,27-heptaazatetracyclo [19.3.1.1˜2,6˜0.1˜8,12˜]heptacosa-1(25),2(27),3,5,8(26),9,11,21,23-nonaen-16-one, US Patent Application Publication No. 2010-0015711; incorporated herein by reference in its entirety). Cells were then cultured for additional day in MCDB-131 medium supplemented with 0.1% fatty acid-free BSA, 0.0012 g/ml sodium bicarbonate, 1× GlutaMax™, 4.5 mM D-Glucose, 100 ng/ml GDF8, and 0.1 μM MCX compound. Cells were then cultured for an additional day in MCDB-131 medium supplemented with 0.1% fatty acid-free BSA, 0.0012 g/ml sodium bicarbonate, 1× GlutaMax™, 4.5 mM D-Glucose, and 100 ng/ml GDF8, then • b) Stage 2 (Primitive gut tube—2 days): Cells were treated for two days with MCDB-131 medium supplemented with 0.1% fatty acid-free BSA; 0.0012 g/ml sodium bicarbonate; 1× GlutaMax™; 4.5 mM D-Glucose; 0.25 mM ascorbic acid (Sigma, St. Louis, Mo.) and 25 ng/ml FGF7 (R & D Systems, Minneapolis, Minn.), then • c) Stage 3 (Foregut—2 days): Cells were treated with MCDB-131 medium supplemented with a 1:200 dilution of ITS-X (Invitrogen); 4.5 mM Glucose; 1× GlutaMax™; 0.0017 g/ml sodium bicarbonate; 2% fatty acid-free BSA; 0.25 μM SANT-1 (Sigma, St. Louis, Mo.); 10 ng/ml of Activin-A (R & D Systems); 1 μM retinoic acid (RA; Sigma); 25 ng/ml FGF7; 0.25 mM ascorbic acid; 200 nM TPB (a PKC activator; Catalog No. 565740; EMD Chemicals, Gibstown, N.J.); 10 μM forskolin (FSK, Sigma), and 100 nM LDN (a BMP receptor inhibitor; Catalog No. 04-0019; Stemgent; San Diego, Calif.) for day 1. On day 2, cells were treated with MCDB-131 medium supplemented with a 1:200 dilution of ITS-X; 4.5 mM Glucose; 1× GlutaMax™; 0.0017 g/ml sodium bicarbonate; 2% fatty acid-free BSA; 0.25 μM SANT-1; 10 ng/ml of Activin A; 1 μM RA; 25 ng/ml FGF7; 0.25 mM ascorbic acid, 200 nM TPB, 10 μM forskolin and 10 nM LDN, then • d) Stage 4 (Pancreatic foregut precursor—2 days); Cells were treated with MCDB-131 medium supplemented with a 1:200 dilution of ITS-X; 4.5 mM Glucose; 1× GlutaMax™; 0.0015 g/ml sodium bicarbonate; 2% fatty acid-free BSA; 0.25 μM SANT-1; 50 nM RA; 50 nM LDN-193189; 10 μM forskolin; 0.25 mM ascorbic acid; and 100 nM TPB for two days, then • e) Stage 5 (Pancreatic endoderm/endocrine—3 days): Stage 4 cells were treated with MCDB-131 medium supplemented with a 1:200 dilution of ITS-X; 20 mM Glucose; 1× GlutaMax™; 0.0015 g/ml sodium bicarbonate; 2% fatty acid-free BSA; 0.25 μM SANT-1; 50 nM RA; 10 μM forskolin; 0.25 mM ascorbic acid for three days, with the addition of 100 nM ALk5 inhibitor SD-208 (disclosed in Molecular Pharmacology 2007, 72:152-161) for days 2-3 only.
At day 1 of stage 5, the factors listed in Table I, below, were spiked into the media and upon completion of S5 (day 3 of stage 5) mRNA was collected for PCR analysis of relevant pancreatic endoderm/endocrine genes. As a control, cultures were treated only with the S5 media listed above. […]

Molecule | expression of somatostatin | expression of ghrelin | expression of glucagon | mRNA expression of insulin | expression of hormones | mRNA expression of NKX6.1
Activin-C: protein factor, R & D Systems catalogue number 4879-AC-010 (protein, UniProt P55103 237-352, looked up) Inhibin beta C chain: GIDCQGGSRMCCRQEFFVDFREIGWHDWIIQPEGYAMNFCIGQCPLHIAGMPGIAASFHTAVLNLLKANTAAGTTGGGSCCVPTARRPLSLLYYDRDSNIVKTDIPDMVVEACGCS | significantly enhanced | suppressing | suppressing | suppressing | – | –
Epigen: protein factor, R & D Systems catalogue number 6629-EP-025 (protein, UniProt Q6UW88 23-154, looked up) Epigen: AAVTVTPPITAQQGNWTVNKTEADNIEGPIALKFSHLCLEDHNSYCINGACAFHHELEKAICRCFTGYTGERCEHLTLTSYAVDSYEKYIAIGIGVGLLLSGFLVIFYCYIRKRCLKLKSPYNVCSGERRPL | – | – | – | – | not affecting | enhanced
Activin-A: protein factor, R & D Systems catalogue number 338-AC-010 (protein, UniProt P08476 311-426, looked up) Inhibin beta A chain: GLECDGKVNICCKKQFFVSFKDIGWNDWIIAPSGYHANYCEGECPSHIAGTSGSSLSFHSTVINHYRMRGHSPFANLKSCCVPTKLRPMSMLYYDDGQNIIKKDIQNMIVEECGCS | significantly enhanced | suppressing | suppressing | suppressing | – | –
semaphorin 3a: protein factor, R & D Systems catalogue number 1250-S3-025 (protein, UniProt Q14563 21-771, looked up) Semaphorin-3A: NYQNGKNNVPRLKLSYKEMLESNNVITFNGLANSSSYHTFLLDEERSRLYVGAKDHIFSFDLVNIKDFQKIVWPVSYTRRDECKWAGKDILKECANFIKVLKAYNQTHLYACGTGAFHPICTYIEIGHHPEDNIFKLENSHFENGRGKSPYDPKLLTASLLIDGELYSGTAADFMGRDFAIFRTLGHHHPIRTEQHDSRWLNDPKFISAHLISESDNPEDDKVYFFFRENAIDGEHSGKATHARIGQICKNDFGGHRSLVNKWTTFLKARLICSVPGPNGIDTHFDELQDVFLMNFKDPKNPVVYGVFTTSSNIFKGSAVCMYSMSDVRRVFLGPYAHRDGPNYQWVPYQGRVPYPRPGTCPSKTFGGFDSTKDLPDDVITFARSHPAMYNPVFPMNNRPIVIKTDVNYQFTQIVVDRVDAEDGQYDVMFIGTDVGTVLKVVSIPKETWYDLEEVLLEEMTVFREPTAISAMELSTKQQQLYIGSTAGVAQLPLHRCDIYGKACAECCLARDPYCAWDGSACSRYFPTAKRRTRRQDIRNGDPLTHCSDLHHDNHHGHSPEERIIYGVENSSTFLECSPKSQRALVYWQFQRRNEERKEEIRVDDHIIRTDQGLLLRSLQQKDSGNYLCHAVEHGFIQTLLKVTLEVIDTEHLEELLHKDDDGDGSKTKEMSNSMTPSQKVWYRDFMQLINHPNLNTMDEFCEQVWKRDRKQRRQRPGHTPGNSNKWKHLQENKKGRNRRTHEFERAPRSV | – | – | – | – | not affecting | enhanced
